In the data set the target is Sso7d-ΔTaq (wild-type fusion) G24W (Sso7d numbering; reverts the mutant fusion to wild type) (Sulfolobus solfataricus? / Thermus aquaticus?) (UniProt P19821). The note with it: PCR yield ratio primer 57F over 57F5/6, reverse primer 732R, annealing 64 C.
UniProt P19821, sequence (P19821 whole entry, stated change not applied, the tested form may be a part): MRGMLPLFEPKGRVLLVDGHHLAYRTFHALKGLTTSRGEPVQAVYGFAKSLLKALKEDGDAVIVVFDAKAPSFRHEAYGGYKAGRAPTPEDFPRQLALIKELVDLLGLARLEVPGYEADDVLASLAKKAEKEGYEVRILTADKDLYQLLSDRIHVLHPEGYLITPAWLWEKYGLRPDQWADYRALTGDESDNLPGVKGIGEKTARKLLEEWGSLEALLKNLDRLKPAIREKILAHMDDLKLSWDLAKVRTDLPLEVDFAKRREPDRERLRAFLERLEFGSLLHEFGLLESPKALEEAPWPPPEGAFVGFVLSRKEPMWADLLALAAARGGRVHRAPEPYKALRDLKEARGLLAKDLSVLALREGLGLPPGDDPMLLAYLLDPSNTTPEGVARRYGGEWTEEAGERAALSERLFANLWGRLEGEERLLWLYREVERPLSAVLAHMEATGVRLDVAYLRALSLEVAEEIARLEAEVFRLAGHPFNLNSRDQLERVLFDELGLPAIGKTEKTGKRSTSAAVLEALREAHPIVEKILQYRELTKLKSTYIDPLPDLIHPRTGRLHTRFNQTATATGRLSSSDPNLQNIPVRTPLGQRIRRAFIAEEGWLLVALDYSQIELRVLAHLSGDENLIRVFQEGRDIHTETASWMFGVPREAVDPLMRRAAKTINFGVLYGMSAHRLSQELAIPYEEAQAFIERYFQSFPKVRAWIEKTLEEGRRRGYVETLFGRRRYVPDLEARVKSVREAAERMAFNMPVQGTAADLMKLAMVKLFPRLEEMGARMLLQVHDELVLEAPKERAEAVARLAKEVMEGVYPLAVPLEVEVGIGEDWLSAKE

For the sequence “TCCGCCCTTCTTCGTCATAACT (double strand) [mismatched primer 57F5/6 on lambda DNA]”, the PCR match/mismatch yield ratio (match/mismatch yield ratio) came out at 0.92.

The values are drawn from patent US20040081963.
